{"source": "paper PMC10279719", "key": {"[1]": {"molecular_target": "PEAK3 tandem-pS69 peptide (residues 54-74) (human)", "assay": "ITC; binary; peptide in the cell (20 µM, or 16.8 µM after a buffer titration), protein in the syringe; 25 °C, 20 mM HEPES pH 7.4, 150 mM NaCl, 1 mM TCEP; single binding site model"}, "[2]": {"molecular_target": "PEAK3^tandem-pS69 peptide (residues 54–74, phosphorylated at S69) (human)", "assay": "ITC; binary; peptide (20 μM) in the cell, protein in the syringe (14-3-3ɣ 200 μM; CrkII^NSH3 140 or 400 μM); 25 °C, 20 mM HEPES pH 7.4, 150 mM NaCl, 1 mM TCEP; single site model"}, "[3]": {"molecular_target": "PEAK3tandem-pS69 peptide (residues 54-74) (human)", "assay": "ITC; 25 °C, peptide (20 µM) in the cell, protein in the syringe, sequential titrations; 20 mM HEPES pH 7.4, 150 mM NaCl, 1 mM TCEP; single binding site model"}, "[4]": {"molecular_target": "PEAK3 SH2-pY peptide 23-29 (Homo sapiens) (UniProt Q6ZS72)", "sequence (Q6ZS72 whole entry, looked up, tested part not stated)": "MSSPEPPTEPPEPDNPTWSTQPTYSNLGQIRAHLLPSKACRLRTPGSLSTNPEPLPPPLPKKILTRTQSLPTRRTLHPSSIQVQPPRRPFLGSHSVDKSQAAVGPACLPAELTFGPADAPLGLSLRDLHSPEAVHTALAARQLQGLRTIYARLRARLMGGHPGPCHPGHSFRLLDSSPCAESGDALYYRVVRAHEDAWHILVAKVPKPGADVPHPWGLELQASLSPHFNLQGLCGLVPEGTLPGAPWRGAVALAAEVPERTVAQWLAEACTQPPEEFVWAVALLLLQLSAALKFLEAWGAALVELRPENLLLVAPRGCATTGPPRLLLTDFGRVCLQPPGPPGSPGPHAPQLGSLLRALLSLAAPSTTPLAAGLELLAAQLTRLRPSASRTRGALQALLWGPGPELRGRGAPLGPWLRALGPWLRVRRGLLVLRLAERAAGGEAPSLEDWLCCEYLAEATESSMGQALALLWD", "assay": "ITC", "conditions": "cited from earlier work"}, "[5]": {"molecular_target": "PEAK3 tandem-pS69 : 14-3-3γ (K50E) complex (human)", "assay": "ITC; ternary; CrkII NSH3 in the syringe titrated into the peptide:14-3-3γ complex left in the cell (16.8 µM) after the first titration; 25 °C, 20 mM HEPES pH 7.4, 150 mM NaCl, 1 mM TCEP; single binding site model"}, "[6]": {"molecular_target": "PEAK3^(tandem, 54–74)pS69:14-3-3γ complex (human)", "assay": "ITC; ternary, sequential; CrkII^NSH3 (400 μM, syringe) titrated into the peptide (16.8 µM) left in the cell after a first titration with 14-3-3ɣ; 25 °C, 20 mM HEPES pH 7.4, 150 mM NaCl, 1 mM TCEP"}, "[7]": {"molecular_target": "PEAK2^IDR1 (residues 802-1406), from insect cells, phosphorylated by Src (human) (UniProt Q86YV5)", "sequence (Q86YV5 802-1406)": "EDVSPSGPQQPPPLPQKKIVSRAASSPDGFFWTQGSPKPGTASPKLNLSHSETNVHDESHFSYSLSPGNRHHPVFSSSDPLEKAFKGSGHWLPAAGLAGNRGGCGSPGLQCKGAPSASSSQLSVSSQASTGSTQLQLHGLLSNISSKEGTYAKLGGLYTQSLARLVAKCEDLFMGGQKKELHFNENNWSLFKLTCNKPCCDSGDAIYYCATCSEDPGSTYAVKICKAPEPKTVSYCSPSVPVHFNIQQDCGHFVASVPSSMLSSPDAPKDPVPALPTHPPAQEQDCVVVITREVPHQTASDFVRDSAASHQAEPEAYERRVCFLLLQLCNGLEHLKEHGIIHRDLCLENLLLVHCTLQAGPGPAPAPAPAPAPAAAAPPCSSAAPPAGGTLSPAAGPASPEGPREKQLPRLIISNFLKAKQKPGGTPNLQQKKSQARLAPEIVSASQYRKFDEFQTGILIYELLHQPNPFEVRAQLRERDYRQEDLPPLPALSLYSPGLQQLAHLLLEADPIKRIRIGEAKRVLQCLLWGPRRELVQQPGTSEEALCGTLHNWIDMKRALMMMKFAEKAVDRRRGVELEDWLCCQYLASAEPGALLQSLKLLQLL", "assay": "SPR; biotinylated PEAK proteins (with or without Src phosphorylation) captured with a biotin CAPture kit; Grb2 FL, Grb2 SH2, CrkII SH2, CrkII FL monomer or dimer as analytes; Biacore 8K+, 20 °C, HBS-TP with NaCl raised to 500 mM; 1 M NaCl regeneration; steady state"}, "[8]": {"molecular_target": "full length PEAK3 (PEAK3^FL, residues 1-473), from insect cells, phosphorylated by Src (human) (UniProt Q6ZS72)", "sequence (Q6ZS72 whole entry, the tested form may be a part)": "as the sequence (Q6ZS72 whole entry, looked up, tested part not stated) above", "assay": "SPR; biotinylated PEAK proteins (with or without Src phosphorylation) captured with a biotin CAPture kit; Grb2 FL, Grb2 SH2, CrkII SH2, CrkII FL monomer or dimer as analytes; Biacore 8K+, 20 °C, HBS-TP with NaCl raised to 500 mM; 1 M NaCl regeneration; steady state"}, "[9]": {"molecular_target": "PEAK1^IDR1 (residues 1082-1746), from insect cells, phosphorylated by Src (human) (UniProt Q9H792)", "sequence (Q9H792 1082-1746)": "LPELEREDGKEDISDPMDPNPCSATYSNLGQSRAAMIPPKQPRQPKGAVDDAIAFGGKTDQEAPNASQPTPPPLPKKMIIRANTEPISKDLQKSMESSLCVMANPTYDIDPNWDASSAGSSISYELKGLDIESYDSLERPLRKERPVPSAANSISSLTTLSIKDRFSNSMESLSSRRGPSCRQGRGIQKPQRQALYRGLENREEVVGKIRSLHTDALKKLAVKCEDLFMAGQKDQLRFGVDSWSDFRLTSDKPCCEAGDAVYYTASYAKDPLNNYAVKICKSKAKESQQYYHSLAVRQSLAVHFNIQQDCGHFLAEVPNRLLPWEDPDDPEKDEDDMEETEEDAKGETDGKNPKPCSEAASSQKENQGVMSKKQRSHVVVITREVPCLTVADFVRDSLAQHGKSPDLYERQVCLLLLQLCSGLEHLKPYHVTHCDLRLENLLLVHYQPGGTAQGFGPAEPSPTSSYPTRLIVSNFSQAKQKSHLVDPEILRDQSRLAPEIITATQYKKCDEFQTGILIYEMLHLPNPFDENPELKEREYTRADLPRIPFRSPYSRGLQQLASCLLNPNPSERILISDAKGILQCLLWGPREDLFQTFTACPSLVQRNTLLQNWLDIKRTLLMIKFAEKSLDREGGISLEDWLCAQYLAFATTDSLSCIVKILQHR", "assay": "SPR; biotinylated PEAK proteins (with or without Src phosphorylation) captured with a biotin CAPture kit; Grb2 FL, Grb2 SH2, CrkII SH2, CrkII FL monomer or dimer as analytes; Biacore 8K+, 20 °C, HBS-TP with NaCl raised to 500 mM; 1 M NaCl regeneration; steady state"}, "[10]": {"molecular_target": "14-3-3σ (Methods: 14-3-3ς, with an accession that is 14-3-3ζ) 1-245", "assay": "SPR, immobilized 14-3-3σ"}, "14-3-3γ 1-247": {"molecular_target": "14-3-3γ 1-247 (UniProt P61981)", "assay": "SPR, immobilized 14-3-3γ", "conditions": "reference: non-phosphorylated PEAK1tandem peptide; sites T1165"}, "14-3-3η 1-246": {"molecular_target": "14-3-3η 1-246 (UniProt Q04917)", "assay": "SPR, immobilized 14-3-3η"}, "14-3-3ε 1-255": {"molecular_target": "14-3-3ε 1-255 (UniProt P62258)", "assay": "SPR, immobilized 14-3-3ε"}, "[11]": {"molecular_target": "14-3-3ε (residues 1-255) (human) (UniProt P62258)", "sequence (P62258 whole entry, the tested form may be a part, canonical isoform)": "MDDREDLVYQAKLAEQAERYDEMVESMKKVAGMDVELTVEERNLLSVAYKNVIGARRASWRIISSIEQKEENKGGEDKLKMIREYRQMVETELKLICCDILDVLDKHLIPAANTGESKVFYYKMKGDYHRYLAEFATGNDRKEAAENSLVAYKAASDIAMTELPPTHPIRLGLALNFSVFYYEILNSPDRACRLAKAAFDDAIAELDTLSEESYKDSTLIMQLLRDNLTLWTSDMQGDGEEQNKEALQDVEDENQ", "assay": "SPR; 14-3-3 isoforms amine coupled to a CM5 chip, tandem peptides as analytes (10 µM-10 nM for PEAK3 tandem-pS69, 20 µM-20 nM for all others); Biacore S200, 20 °C, HBS-TP; steady state, 1:1 model"}, "[12]": {"molecular_target": "14-3-3η (residues 1-246) (human)", "assay": "SPR; 14-3-3 isoforms amine coupled to a CM5 chip, tandem peptides as analytes (10 µM-10 nM for PEAK3 tandem-pS69, 20 µM-20 nM for all others); Biacore S200, 20 °C, HBS-TP; steady state, 1:1 model"}, "[13]": {"molecular_target": "14-3-3γ (residues 1-247) (human)", "assay": "SPR; 14-3-3 isoforms amine coupled to a CM5 chip, tandem peptides as analytes (10 µM-10 nM for PEAK3 tandem-pS69, 20 µM-20 nM for all others); Biacore S200, 20 °C, HBS-TP; steady state, 1:1 model"}, "14-3-3γ (human)": {"molecular_target": "14-3-3γ (human)", "assay": "SPR; Biacore S200; 14-3-3 isoforms amine coupled to CM5, peptides injected (10 µM–10 nM for PEAK3^tandem-pS69, 20 µM–20 nM for other peptides); 20 °C, HBS-TP; steady-state 1:1 fit"}, "[14]": {"molecular_target": "PEAK2^IDR1 (human PEAK2 residues 802–1406) (human) (UniProt Q86YV5)", "sequence (Q86YV5 802-1406)": "as the sequence (Q86YV5 802-1406) above", "assay": "SEC-MALS; purified PEAK2^IDR1:CrkII^FL dimer complex (170 μg), Superdex 200 Increase 10/300, 20 mM HEPES pH 7.5, 150 mM NaCl, 1 mM TCEP"}, "[15]": {"molecular_target": "full length CrkII, dimer (CrkII^FL dimer) (human) (UniProt P46108)", "assay": "SEC; single purified proteins on Superdex 200 (purification and re-runs), 20 mM HEPES pH 7.5–8.5, 150 mM NaCl, 1 mM TCEP; oligomeric state"}, "[16]": {"molecular_target": "PEAK1^IDR1 (residues 1082-1746), from insect cells (human) (UniProt Q9H792)", "sequence (Q9H792 1082-1746)": "as the sequence (Q9H792 1082-1746) above", "assay": "SPR; biotinylated PEAK proteins (with or without Src phosphorylation) captured with a biotin CAPture kit; Grb2 FL, Grb2 SH2, CrkII SH2, CrkII FL monomer or dimer as analytes; Biacore 8K+, 20 °C, HBS-TP with NaCl raised to 500 mM; 1 M NaCl regeneration; steady state"}, "[17]": {"conditions": "reference: non-phosphorylated PEAK1tandem peptide, sites T1165"}, "[18]": {"conditions": "reference: non-phosphorylated PEAK3tandem peptide, sites S69"}}, "data": [{"substance": "14-3-3γ (gamma) (K50E) (natural protein)", "values": [{"measurement": "Kd", "setting": "[1]", "result": 5.99, "unit": "µM"}, {"measurement": "stoichiometry N", "setting": "[1]", "result": 0.726}]}, {"substance": "14-3-3γ (natural protein)", "values": [{"measurement": "Kd", "setting": "[2]", "result": 0.13, "unit": "µM"}, {"measurement": "Kd", "setting": "[3]", "result": 0.126, "unit": "µM"}]}, {"substance": "CrkII (from UniProt P46108)", "values": [{"measurement": "Kd", "setting": "[4]", "result": 7.8, "unit": "µM"}]}, {"substance": "CrkII N-terminal SH3 domain (CrkII^NSH3, residues 134-191) (from UniProt P46108-1 134-191) (domain or fragment)", "values": [{"measurement": "Kd", "setting": "[5]", "result": 3.26, "unit": "µM"}, {"measurement": "stoichiometry N", "setting": "[5]", "result": 0.69}]}, {"substance": "CrkII NSH3 domain (CrkII^NSH3, residues 134–191) (from UniProt P46108-1 134-191) (domain or fragment)", "values": [{"measurement": "Kd", "setting": "[6]", "result": 3.6, "unit": "µM"}]}, {"substance": "CrkII SH2 domain (CrkII^SH2, residues 6-120) (from UniProt P46108-1 6-120) (domain or fragment)", "values": [{"measurement": "Kd", "setting": "[7]", "result": 21, "unit": "µM"}, {"measurement": "Kd", "setting": "[8]", "result": 48, "unit": "µM"}, {"measurement": "Kd", "setting": "[9]", "result": 12.5, "unit": "µM"}]}, {"substance": "PEAK1 1152-1171 (from UniProt Q9H792) PEAK1tandem-pT1165 peptide", "values": [{"measurement": "binding against the reference", "setting": "[10]; [17]", "result": "stronger"}, {"measurement": "binding against the reference", "setting": "14-3-3γ 1-247", "result": "stronger"}, {"measurement": "binding against the reference", "setting": "14-3-3η 1-246; [17]", "result": "stronger"}, {"measurement": "binding against the reference", "setting": "14-3-3ε 1-255; [17]", "result": "stronger"}]}, {"substance": "PEAK1 tandem peptide, non-phosphorylated (residues 1152-1171)", "values": [{"measurement": "Kd", "setting": "[11]", "result": "> 100", "unit": "µM"}]}, {"substance": "PEAK1 tandem-pT1165 peptide (residues 1152-1171)", "values": [{"measurement": "Kd", "setting": "[11]", "result": 5.39, "unit": "µM"}]}, {"substance": "PEAK2 tandem peptide, non-phosphorylated (residues 812-831)", "values": [{"measurement": "Kd", "setting": "[11]", "result": "> 100", "unit": "µM"}, {"measurement": "Kd", "setting": "[12]", "result": "> 100", "unit": "µM"}, {"measurement": "Kd", "setting": "[13]", "result": "> 100", "unit": "µM"}]}, {"substance": "PEAK2 tandem-pS826 peptide (residues 812-831)", "values": [{"measurement": "Kd", "setting": "[11]", "result": 7.42, "unit": "µM"}, {"measurement": "Kd", "setting": "[12]", "result": 1.94, "unit": "µM"}, {"measurement": "Kd", "setting": "[13]", "result": 1.35, "unit": "µM"}]}, {"substance": "PEAK3 54-74 (from UniProt Q6ZS72) PEAK3tandem-pS69 peptide", "values": [{"measurement": "binding against the reference", "setting": "[10]; [18]", "result": "stronger"}, {"measurement": "binding against the reference", "setting": "14-3-3η 1-246; [18]", "result": "stronger"}, {"measurement": "binding against the reference", "setting": "14-3-3ε 1-255; [18]", "result": "stronger"}]}, {"substance": "PEAK3 tandem peptide, non-phosphorylated (residues 54-74)", "values": [{"measurement": "Kd", "setting": "[11]", "result": "> 100", "unit": "µM"}]}, {"substance": "PEAK3 tandem-pS69 peptide (residues 54-74)", "values": [{"measurement": "Kd", "setting": "[11]", "result": 0.78, "unit": "µM"}]}, {"substance": "PEAK3^tandem peptide, non-phosphorylated (residues 54–74; Ac-…-NH2)", "values": [{"measurement": "Kd", "setting": "14-3-3γ (human)", "result": "> 10", "unit": "µM"}]}, {"substance": "full length CrkII, dimer (CrkII^FL dimer) (from UniProt P46108-1 1-304) (natural protein)", "values": [{"measurement": "stoichiometry N (CrkII chains per PEAK2 chain (2:2))", "setting": "[14]", "result": 1}, {"measurement": "percent of the isolated protein that is dimer", "setting": "[15]", "result": 10, "unit": "%"}]}, {"substance": "full length Grb2 (Grb2^FL, residues 1-217) (from UniProt P62993-1 1-217) (natural protein)", "values": [{"measurement": "Kd", "setting": "[16]", "result": "> 50", "unit": "µM"}, {"measurement": "Kd", "setting": "[9]", "result": 4.3, "unit": "µM"}]}]}
